Publication PMC7954794, “Protein context shapes the specificity of SH3 domain-mediated interactions in vivo” (Nature Communications, 2021)

Test system: growth of yeast strains under 51 stress conditions
Test: Growth assays in 51 stress conditions (Fig. 1E-F, S2D, S5B)
Format: cell-based, Saccharomyces cerevisiae
Parameters: key to Growth (Fig. S2D) / growth of ABP1 SH3-swapped strains in stress condition: log2 colony size, average of median per strain (growth score)
Conditions: ABP1 SH3-swapped strains
In short: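 Yeast WT, SH3-deleted, KO, SH3-swapped and SH3-shuffled strains pinned in 1536 format, 12 replicates each; pregrown on YPD 2 days at 30 °C, then replicated onto 51 media at 37 °C and imaged every 2 h. Growth score = mean of per-plate median log2 colony size at 74 h.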

B1: MYO3 (protein, UniProt P36006 1-1272, looked up)
Myosin-3: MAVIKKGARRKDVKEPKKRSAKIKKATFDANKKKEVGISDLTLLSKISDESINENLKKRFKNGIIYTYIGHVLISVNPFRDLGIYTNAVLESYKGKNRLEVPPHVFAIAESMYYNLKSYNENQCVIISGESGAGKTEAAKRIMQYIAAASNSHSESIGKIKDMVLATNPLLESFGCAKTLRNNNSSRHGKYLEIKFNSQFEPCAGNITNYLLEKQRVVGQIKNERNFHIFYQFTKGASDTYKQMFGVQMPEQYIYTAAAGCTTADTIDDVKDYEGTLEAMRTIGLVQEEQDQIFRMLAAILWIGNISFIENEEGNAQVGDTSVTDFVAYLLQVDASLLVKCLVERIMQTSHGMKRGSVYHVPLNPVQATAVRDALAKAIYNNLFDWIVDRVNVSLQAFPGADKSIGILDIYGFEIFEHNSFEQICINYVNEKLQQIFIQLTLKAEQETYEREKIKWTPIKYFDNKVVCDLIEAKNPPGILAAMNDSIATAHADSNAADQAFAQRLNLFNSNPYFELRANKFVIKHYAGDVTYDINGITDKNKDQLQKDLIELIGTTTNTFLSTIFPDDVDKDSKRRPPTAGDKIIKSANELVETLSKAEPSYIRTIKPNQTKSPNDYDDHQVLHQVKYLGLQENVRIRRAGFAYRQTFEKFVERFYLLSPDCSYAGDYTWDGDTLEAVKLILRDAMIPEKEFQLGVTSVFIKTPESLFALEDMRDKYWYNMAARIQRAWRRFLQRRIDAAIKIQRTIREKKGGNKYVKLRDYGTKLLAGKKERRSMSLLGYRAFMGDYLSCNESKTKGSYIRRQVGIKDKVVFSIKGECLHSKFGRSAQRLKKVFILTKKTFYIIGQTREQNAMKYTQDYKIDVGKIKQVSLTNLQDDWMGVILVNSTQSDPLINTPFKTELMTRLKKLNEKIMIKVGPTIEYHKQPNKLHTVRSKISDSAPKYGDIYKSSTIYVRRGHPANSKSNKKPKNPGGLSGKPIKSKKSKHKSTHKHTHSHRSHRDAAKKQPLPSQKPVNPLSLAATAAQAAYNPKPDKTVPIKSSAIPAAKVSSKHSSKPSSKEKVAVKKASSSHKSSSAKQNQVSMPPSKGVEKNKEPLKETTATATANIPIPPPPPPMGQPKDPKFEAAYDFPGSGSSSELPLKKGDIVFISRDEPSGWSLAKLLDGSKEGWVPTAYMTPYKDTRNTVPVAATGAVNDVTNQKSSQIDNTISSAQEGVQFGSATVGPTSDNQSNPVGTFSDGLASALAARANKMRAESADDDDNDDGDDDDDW
Growth (Fig. S2D) (Bathophenanthroline.0.1uM): 10.752
Growth (Fig. S2D) (Bathophenanthroline.10uM): 10.5714
Growth (Fig. S2D) (Bathophenanthroline.1uM): 10.7108
Growth (Fig. S2D) (CaCl2.250mM): 10.7527
Growth (Fig. S2D) (CaCl2.500mM): 10.1691
Growth (Fig. S2D) (Caffein.10mM): 9.976
Growth (Fig. S2D) (Caffein.2mM): 10.8692
Growth (Fig. S2D) (CdCl2.100uM): 9.202
Growth (Fig. S2D) (CdCl2.10uM): 10.8049
Growth (Fig. S2D) (CdCl2.50uM): 9.536
Growth (Fig. S2D) (CuSO4.1mM): 10.0301
Growth (Fig. S2D) (CuSO4.5mM): 7.358
Growth (Fig. S2D) (Cycloheximide.0.05.uM): 11.0001
Growth (Fig. S2D) (Cycloheximide.0.2.uM): 10.4991
Growth (Fig. S2D) (Cycloheximide.0.5.uM): 9.9209
Growth (Fig. S2D) (DMSO.2.): 10.998
Growth (Fig. S2D) (DMSO.6.): 9.853
Growth (Fig. S2D) (DMSO.8.): 9.243
Growth (Fig. S2D) (Ethanol.2.): 10.6338
Growth (Fig. S2D) (Ethanol.6.): 10.0843
Growth (Fig. S2D) (Ethanol.8.): 9.865
Growth (Fig. S2D) (Galactose.2.): 10.6373
Growth (Fig. S2D) (Glycerol.2.): 8.89
Growth (Fig. S2D) (Hydroxyurea.25mM): 10.6592
Growth (Fig. S2D) (Hygromycin.190uM): 10.9229
Growth (Fig. S2D) (Hygromycin.19uM): 10.8956
Growth (Fig. S2D) (Hygromycin.95uM): 10.9112
Growth (Fig. S2D) (MMS.0.004.): 10.8802
Growth (Fig. S2D) (MMS.0.02.): 10.4477
Growth (Fig. S2D) (MMS.0.04.): 9.333
Growth (Fig. S2D) (Menadione.100uM): 10.5316
Growth (Fig. S2D) (Menadione.200uM): 10.3415
Growth (Fig. S2D) (Menadione.50uM): 10.7191
Growth (Fig. S2D) (NaCl.0.25M): 10.6458
Growth (Fig. S2D) (NaCl.1M): 9.0624
Growth (Fig. S2D) (Nitroquinoline.10uM): 10.5815
Growth (Fig. S2D) (Nitroquinoline.50uM): 10.5108
Growth (Fig. S2D) (Nystatin.0.01uM): 10.9576
Growth (Fig. S2D) (Nystatin.0.1uM): 10.9795
Growth (Fig. S2D) (Raffinose.2.): 10.915
Growth (Fig. S2D) (Rapamycin.10nM): 9.682
Growth (Fig. S2D) (Rapamycin.50nM): 9.448
Growth (Fig. S2D) (SC.pH3): 10.2912
Growth (Fig. S2D) (SC.pH6): 10.9261
Growth (Fig. S2D) (SDS.0.01.): 10.9246
Growth (Fig. S2D) (SDS.0.02.): 10.9437
Growth (Fig. S2D) (SDS.0.05.): 10.7731
Growth (Fig. S2D) (Sorbitol.10mM): 10.9112
Growth (Fig. S2D) (Sorbitol.1mM): 11.0073
Growth (Fig. S2D) (Sorbitol.5mM): 10.8833
